Measurements taken from the supplement of paper PMC10899765.

system: MCF10A; test: 5+ nucleoli phenotype percent effect (relative to siNT 0% and siKIF11 100%); higher = more cells with five or more nucleoli; conditions: 20 nM; 72 h
Description: (§1)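 After 72 h, cells were fixed and stained with Hoechst and anti-fibrillarin, and nucleoli per nucleus were counted with CellProfiler. Values are plate-adjusted percent effect for the one-nucleolus and 5+ nucleoli phenotypes, normalised to siNT (0%) and to the positive controls siNOL11 or siKIF11 (100%), as the mean of biological triplicates. Percent viability is the nuclei count relative to siNT.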

Row | Sequence | 5+ nucleoli phenotype percent effect [%]
1 | AGAGCUCACAGCUGUCCUUCUCUA [hsa-miR-3670] | -9.38
2 | AUACUGUGAAUUUCACUGUCACA [hsa-miR-4693-5p] | -20.3
3 | AGGCAGUGUAUUGUUAGCUGGC [hsa-miR-449b-5p] | 36.8
4 | AGCAAAAUAAGCAAAUGGAAAA [hsa-miR-1468-3p] | 29.6
5 | GAAGGACCUGCACCUUCG [hsa-miR-6816-3p] | -36.7
6 | UUGGAAGCUUGGACCAACUAGCUG [hsa-miR-6079] | -27.8
7 | AAGUUCUGUUAUACACUCAGGC [hsa-miR-148b-5p] | -28.2
8 | GAUCUCACUUUGUUGCCCAGG [hsa-miR-1285-5p] | 15.8
9 | CCUGCGUGUUUUCUGUCCAA [hsa-miR-4520a-5p] | -4.05
10 | AUAUACAGGGGGAGACUCUCAU [hsa-miR-1185-2-3p] | -11.3
11 | AAUAAUAUCACAGUAGGUGU [hsa-miR-5692b] | 46.7
12 | UCAGGUGUGGAAACUGAGGCAG [hsa-miR-3934-5p] | -10.9
13 | AUCACACAAAGGCAACUUUUGU [hsa-miR-377-3p] | -2.87
14 | GAUGGUUGACCAGAGAGCACAC [hsa-miR-758-5p] | 60.1
15 | UUCCCUAUCUCACUCUCCUCAG [hsa-miR-6883-3p] | 20.1
16 | UCAAAUGCAGAUCCUGACUUC [hsa-miR-7853-5p] | 14
17 | CAAGGAGACGGGAACAUGGAGC [hsa-miR-4428] | 32.8
18 | GCGGAAGGCGGAGCGGCGGA [hsa-miR-6125] | 25.5
19 | UGAGCCGAGCUGAGCUUAGCUG [hsa-miR-4537] | -4.47
20 | AAUUCCCUUGUAGAUAACCCGG [hsa-miR-3938] | 51.2
21 | UGGAUGACAGUGGAGGCCU [hsa-miR-6744-5p] | -19.1
22 | AACGCACUUCCCUUUAGAGUGU [hsa-miR-521] | 28.6
23 | ACUUUAACAUGGAAGUGCUUUC [hsa-miR-302b-5p] | 35.7

Row | Sequence | 5+ nucleoli phenotype percent effect [%]
24 | UUCAAGUAAUUCAGGAUAGGU [hsa-miR-26b-5p] | 45.6
25 | UAAAAUUUGCAUCCAGGA [hsa-miR-4282] | 22.1
26 | AAGGGACAGGGAGGGUCGUGG [hsa-miR-7845-5p] | 2.91
27 | CAAGCUUGUAUCUAUAGGUAUG [hsa-miR-100-3p] | 19.2
28 | UGGGCCAUGCAUUUCUAGAACU [hsa-miR-6508-3p] | -35
29 | UUACAGGCGUGAACCACCGCG [hsa-miR-5095] | -7.36
30 | UUGGGACAUACUUAUGCUAAA [hsa-miR-1302] | -1.97
31 | UCAAUAGGAAAGAGGUGGGACCU [hsa-miR-6826-5p] | -20.8
32 | AAGUCCCACUAAUGCCAGC [hsa-miR-5588-3p] | -3.98
33 | UCUUGUGUUCUCUAGAUCAGU [hsa-miR-581] | 2.53
34 | UGUUCAUGUAGAUGUUUAAGC [hsa-miR-1206] | 42.5
35 | UAUACAAGGGCAAGCUCUCUGU [hsa-miR-381-3p] | 3.97
36 | UGAGUACCGCCAUGUCUGUUGGG [hsa-miR-1911-5p] | 17.2
37 | AGACACAUUUGGAGAGGGAACC [hsa-miR-642a-3p] | 16
38 | UCCUUUGCCUAUUCUAUUUAAG [hsa-miR-3121-5p] | 17
39 | AUGGCCAAAACUGCAGUUAUUUU [hsa-miR-548s] | 14.5
40 | UGAGCCUCUCCUUCCCUCCAG [hsa-miR-6823-3p] | 12.9
41 | CUGUACAACCUUCUAGCUUUCC [hsa-let-7c-3p] | -7.45
42 | CCCGGCCGGAACGCCGCACU [hsa-miR-6850-3p] | 23.1
43 | UCCCUUGUCUCCUUUCCCUAG [hsa-miR-6780b-3p] | 32.5
44 | AGAGGCUGAGAAGGUGAUGUUG [hsa-miR-6884-5p] | -24.7
45 | UGGAGACGCGGCCCUGUUGGAGU [hsa-miR-139-3p] | -24.5

system: MCF10A; test: percent viability (nuclei count relative to siNT); higher = more viable cells; conditions: 20 nM; 72 h
Description: as §1

Row | Sequence | percent viability [%]
46 | AGAGCUCACAGCUGUCCUUCUCUA [hsa-miR-3670] | 25.7
47 | AUACUGUGAAUUUCACUGUCACA [hsa-miR-4693-5p] | 53.9
48 | AGGCAGUGUAUUGUUAGCUGGC [hsa-miR-449b-5p] | 128
49 | AGCAAAAUAAGCAAAUGGAAAA [hsa-miR-1468-3p] | 128
50 | GAAGGACCUGCACCUUCG [hsa-miR-6816-3p] | 35.3
51 | UUGGAAGCUUGGACCAACUAGCUG [hsa-miR-6079] | 31.5
52 | AAGUUCUGUUAUACACUCAGGC [hsa-miR-148b-5p] | 37.1
53 | GAUCUCACUUUGUUGCCCAGG [hsa-miR-1285-5p] | 43.4
54 | CCUGCGUGUUUUCUGUCCAA [hsa-miR-4520a-5p] | 52.7
55 | AUAUACAGGGGGAGACUCUCAU [hsa-miR-1185-2-3p] | 25.8
56 | AAUAAUAUCACAGUAGGUGU [hsa-miR-5692b] | 155
57 | UCAGGUGUGGAAACUGAGGCAG [hsa-miR-3934-5p] | 42.8
58 | AUCACACAAAGGCAACUUUUGU [hsa-miR-377-3p] | 129
59 | GAUGGUUGACCAGAGAGCACAC [hsa-miR-758-5p] | 56.6
60 | UUCCCUAUCUCACUCUCCUCAG [hsa-miR-6883-3p] | 58.5
61 | UCAAAUGCAGAUCCUGACUUC [hsa-miR-7853-5p] | 42.1
62 | CAAGGAGACGGGAACAUGGAGC [hsa-miR-4428] | 69.6
63 | GCGGAAGGCGGAGCGGCGGA [hsa-miR-6125] | 155
64 | UGAGCCGAGCUGAGCUUAGCUG [hsa-miR-4537] | 73.5
65 | AAUUCCCUUGUAGAUAACCCGG [hsa-miR-3938] | 129
66 | UGGAUGACAGUGGAGGCCU [hsa-miR-6744-5p] | 20.5
67 | AACGCACUUCCCUUUAGAGUGU [hsa-miR-521] | 57.9
68 | ACUUUAACAUGGAAGUGCUUUC [hsa-miR-302b-5p] | 101

Row | Sequence | percent viability [%]
69 | UUCAAGUAAUUCAGGAUAGGU [hsa-miR-26b-5p] | 149
70 | UAAAAUUUGCAUCCAGGA [hsa-miR-4282] | 66
71 | AAGGGACAGGGAGGGUCGUGG [hsa-miR-7845-5p] | 60.5
72 | CAAGCUUGUAUCUAUAGGUAUG [hsa-miR-100-3p] | 77.2
73 | UGGGCCAUGCAUUUCUAGAACU [hsa-miR-6508-3p] | 40.2
74 | UUACAGGCGUGAACCACCGCG [hsa-miR-5095] | 12.8
75 | UUGGGACAUACUUAUGCUAAA [hsa-miR-1302] | 46.9
76 | UCAAUAGGAAAGAGGUGGGACCU [hsa-miR-6826-5p] | 33.3
77 | AAGUCCCACUAAUGCCAGC [hsa-miR-5588-3p] | 42.5
78 | UCUUGUGUUCUCUAGAUCAGU [hsa-miR-581] | 82.2
79 | UGUUCAUGUAGAUGUUUAAGC [hsa-miR-1206] | 95.8
80 | UAUACAAGGGCAAGCUCUCUGU [hsa-miR-381-3p] | 90.7
81 | UGAGUACCGCCAUGUCUGUUGGG [hsa-miR-1911-5p] | 108
82 | AGACACAUUUGGAGAGGGAACC [hsa-miR-642a-3p] | 90.2
83 | UCCUUUGCCUAUUCUAUUUAAG [hsa-miR-3121-5p] | 56.5
84 | AUGGCCAAAACUGCAGUUAUUUU [hsa-miR-548s] | 37.4
85 | UGAGCCUCUCCUUCCCUCCAG [hsa-miR-6823-3p] | 31.2
86 | CUGUACAACCUUCUAGCUUUCC [hsa-let-7c-3p] | 74.2
87 | CCCGGCCGGAACGCCGCACU [hsa-miR-6850-3p] | 65.7
88 | UCCCUUGUCUCCUUUCCCUAG [hsa-miR-6780b-3p] | 68.9
89 | AGAGGCUGAGAAGGUGAUGUUG [hsa-miR-6884-5p] | 22.3
90 | UGGAGACGCGGCCCUGUUGGAGU [hsa-miR-139-3p] | 68

system: MCF10A; test: one-nucleolus phenotype percent effect (relative to siNT 0% and siNOL11 100%); higher = more cells with one nucleolus (ribosome biogenesis inhibition); conditions: 20 nM; 72 h
Description: as §1

Row | Sequence | one-nucleolus phenotype percent effect [%]
91 | AGAGCUCACAGCUGUCCUUCUCUA [hsa-miR-3670] | 17.6
92 | AUACUGUGAAUUUCACUGUCACA [hsa-miR-4693-5p] | 2.95
93 | AGGCAGUGUAUUGUUAGCUGGC [hsa-miR-449b-5p] | -25.7
94 | AGCAAAAUAAGCAAAUGGAAAA [hsa-miR-1468-3p] | -19.1
95 | GAAGGACCUGCACCUUCG [hsa-miR-6816-3p] | 49.8
96 | UUGGAAGCUUGGACCAACUAGCUG [hsa-miR-6079] | 28.7
97 | AAGUUCUGUUAUACACUCAGGC [hsa-miR-148b-5p] | 11.3
98 | GAUCUCACUUUGUUGCCCAGG [hsa-miR-1285-5p] | -20.8
99 | CCUGCGUGUUUUCUGUCCAA [hsa-miR-4520a-5p] | 3.67
100 | AUAUACAGGGGGAGACUCUCAU [hsa-miR-1185-2-3p] | 21.3
101 | AAUAAUAUCACAGUAGGUGU [hsa-miR-5692b] | -19.9
102 | UCAGGUGUGGAAACUGAGGCAG [hsa-miR-3934-5p] | 10.5
103 | AUCACACAAAGGCAACUUUUGU [hsa-miR-377-3p] | -9.96
104 | GAUGGUUGACCAGAGAGCACAC [hsa-miR-758-5p] | -21.1
105 | UUCCCUAUCUCACUCUCCUCAG [hsa-miR-6883-3p] | -14.4
106 | UCAAAUGCAGAUCCUGACUUC [hsa-miR-7853-5p] | -15.6
107 | CAAGGAGACGGGAACAUGGAGC [hsa-miR-4428] | -16.1
108 | GCGGAAGGCGGAGCGGCGGA [hsa-miR-6125] | -24.1
109 | UGAGCCGAGCUGAGCUUAGCUG [hsa-miR-4537] | -6.98
110 | AAUUCCCUUGUAGAUAACCCGG [hsa-miR-3938] | -32
111 | UGGAUGACAGUGGAGGCCU [hsa-miR-6744-5p] | 37.8
112 | AACGCACUUCCCUUUAGAGUGU [hsa-miR-521] | -9.21
113 | ACUUUAACAUGGAAGUGCUUUC [hsa-miR-302b-5p] | -20.3

Row | Sequence | one-nucleolus phenotype percent effect [%]
114 | UUCAAGUAAUUCAGGAUAGGU [hsa-miR-26b-5p] | -8.67
115 | UAAAAUUUGCAUCCAGGA [hsa-miR-4282] | -28.5
116 | AAGGGACAGGGAGGGUCGUGG [hsa-miR-7845-5p] | -13.3
117 | CAAGCUUGUAUCUAUAGGUAUG [hsa-miR-100-3p] | -5.48
118 | UGGGCCAUGCAUUUCUAGAACU [hsa-miR-6508-3p] | 41.6
119 | UUACAGGCGUGAACCACCGCG [hsa-miR-5095] | 15.8
120 | UUGGGACAUACUUAUGCUAAA [hsa-miR-1302] | -3.28
121 | UCAAUAGGAAAGAGGUGGGACCU [hsa-miR-6826-5p] | 26.5
122 | AAGUCCCACUAAUGCCAGC [hsa-miR-5588-3p] | 6.67
123 | UCUUGUGUUCUCUAGAUCAGU [hsa-miR-581] | -3.72
124 | UGUUCAUGUAGAUGUUUAAGC [hsa-miR-1206] | -22.5
125 | UAUACAAGGGCAAGCUCUCUGU [hsa-miR-381-3p] | -13.7
126 | UGAGUACCGCCAUGUCUGUUGGG [hsa-miR-1911-5p] | -20.9
127 | AGACACAUUUGGAGAGGGAACC [hsa-miR-642a-3p] | -16.3
128 | UCCUUUGCCUAUUCUAUUUAAG [hsa-miR-3121-5p] | -3.46
129 | AUGGCCAAAACUGCAGUUAUUUU [hsa-miR-548s] | 8.89
130 | UGAGCCUCUCCUUCCCUCCAG [hsa-miR-6823-3p] | -2.85
131 | CUGUACAACCUUCUAGCUUUCC [hsa-let-7c-3p] | -4.89
132 | CCCGGCCGGAACGCCGCACU [hsa-miR-6850-3p] | -20.3
133 | UCCCUUGUCUCCUUUCCCUAG [hsa-miR-6780b-3p] | -21.9
134 | AGAGGCUGAGAAGGUGAUGUUG [hsa-miR-6884-5p] | 41.6
135 | UGGAGACGCGGCCCUGUUGGAGU [hsa-miR-139-3p] | 20.9
